Here are results for three variants from IntAct's records for PubMed 14769790.

Sequences and labels used below:
B1: Ferredoxin-thioredoxin reductase, catalytic chain (Synechocystis sp. (strain PCC 6803 / Kazusa)), Q55389 (parent)
chain: MTSSDTQNNKTLAAMKNFAEQYAKRTDTYFCSDLSVTAVVIEGLARHKEELGSPLCPCRHYEDKEAEVKNTFWNCPCVPMRERKECHCMLFLTPDNDFAGDAQDIPMETLEEVKASMA
partner: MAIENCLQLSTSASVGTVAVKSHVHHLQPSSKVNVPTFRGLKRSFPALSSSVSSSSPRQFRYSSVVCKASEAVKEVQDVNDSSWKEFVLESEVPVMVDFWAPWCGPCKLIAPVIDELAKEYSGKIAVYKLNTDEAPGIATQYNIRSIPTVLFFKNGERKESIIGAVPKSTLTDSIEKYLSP
B2: Thioredoxin M-type, chloroplastic (Spinacia oleracea (Spinach)), P07591 (parent)
chain: B1 partner
partner: B1 chain
B3: Ferredoxin-thioredoxin reductase, catalytic chain (Synechocystis sp. (strain PCC 6803 / Kazusa)), Q55389 (parent)
chain: B1 chain
partner: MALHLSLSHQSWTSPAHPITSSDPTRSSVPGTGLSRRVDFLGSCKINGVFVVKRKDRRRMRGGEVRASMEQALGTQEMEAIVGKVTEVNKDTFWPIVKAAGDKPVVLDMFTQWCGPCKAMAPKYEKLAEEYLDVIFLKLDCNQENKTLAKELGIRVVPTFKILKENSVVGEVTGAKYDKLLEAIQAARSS

The first assay covers variants of B1. The conditions noted are these: with trxm_spiol trxm, P07591.
Take MTSSDTQNNKTLAAMKNFAEQYAKRTDTYFCSDLSVTAVVIEGLARHKEELGSPLCPCRHYEDKEAEVKNTFWNCPCVPMRERKECYCMLFLTPDNDFAGDAQDIPMETLEEVKASMA [H87Y]: the “effect of a mutation on the interaction” value is reported as “decreasing interaction”.

In another assay the parent is B2. The conditions noted are these: with ftrc_syny3 ftrC, Q55389.
As to MAIENCLQLSTSASVGTVAVKSHVHHLQPSSKVNVPTFRGLKRSFPALSSSVSSSSPRQFRYSSVVCKASEAVKEVQDVNDSSWKEFVLESEVPVMVDFWAPWCGPSKLIAPVIDELAKEYSGKIAVYKLNTDEAPGIATQYNIRSIPTVLFFKNGERKESIIGAVPKSTLTDSIEKYLSP [C107S], the “effect of a mutation on the interaction” value is “increasing interaction”.

In another assay the parent is B3. The conditions noted are these: with trxf_spiol trxf.
With MTSSDTQNNKTLAAMKNFAEQYAKRTDTYFCSDLSVTAVVIEGLARHKEELGSPLCPSRHYEDKEAEVKNTFWNCPCVPMRERKECHCMLFLTPDNDFAGDAQDIPMETLEEVKASMA [C58S], the “effect of a mutation on the interaction” value is reported as “increasing interaction”.
